Experimental data: article PMC4425475

Legend:
[1] = molecular target: sFlaF-L101Y (S. acidocaldarius); assay: SEC
[2] = molecular target: sFlaF (soluble FlaF, Δ34FlaF, residues 35-164 with an N-terminal His-tag) (S. acidocaldarius); assay: SAXS
[3] = molecular target: S-layer isolated from S. acidocaldarius strain MW001 (WT) (S. acidocaldarius (endogenous in MW001)) (UniProt Q4J6E5); assay: co-sedimentation
[4] = molecular target: sFlaF-R161A (S. acidocaldarius); assay: SEC

Substance: sFlaF-L101Y (domain or fragment)
- stoichiometry N [1]: 2

Substance: sFlaF (soluble FlaF, Δ34FlaF, residues 35-164 with an N-terminal His-tag) (domain or fragment)
- stoichiometry N [2]: 2
- percent bound [3]: 50%

Substance: sFlaF-R161A (domain or fragment)
- stoichiometry N [4]: 2
